Drawing on US20220332804A1 (CSL INNOVATION, published 2022), this text covers Kd for one molecule.

Where a chain is given by its changes, count along the chain named.

Holding throughout (test): SPR, antibody captured, C2 as analyte;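 also: biacore at 37 °C, anti-C2 mAbs held by immobilised goat anti-human IgG, C2 alanine or serine mutants injected, double-referenced sensorgrams fitted to a 1:1 kinetic or steady-state model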
(In general: In SPR one partner is held on a chip, and binding of the other changes the refractive index at the surface.)

Assay [1] concerns the target T1, human C2 D417A (human, UniProt P06681 21-752).
T1 sequence: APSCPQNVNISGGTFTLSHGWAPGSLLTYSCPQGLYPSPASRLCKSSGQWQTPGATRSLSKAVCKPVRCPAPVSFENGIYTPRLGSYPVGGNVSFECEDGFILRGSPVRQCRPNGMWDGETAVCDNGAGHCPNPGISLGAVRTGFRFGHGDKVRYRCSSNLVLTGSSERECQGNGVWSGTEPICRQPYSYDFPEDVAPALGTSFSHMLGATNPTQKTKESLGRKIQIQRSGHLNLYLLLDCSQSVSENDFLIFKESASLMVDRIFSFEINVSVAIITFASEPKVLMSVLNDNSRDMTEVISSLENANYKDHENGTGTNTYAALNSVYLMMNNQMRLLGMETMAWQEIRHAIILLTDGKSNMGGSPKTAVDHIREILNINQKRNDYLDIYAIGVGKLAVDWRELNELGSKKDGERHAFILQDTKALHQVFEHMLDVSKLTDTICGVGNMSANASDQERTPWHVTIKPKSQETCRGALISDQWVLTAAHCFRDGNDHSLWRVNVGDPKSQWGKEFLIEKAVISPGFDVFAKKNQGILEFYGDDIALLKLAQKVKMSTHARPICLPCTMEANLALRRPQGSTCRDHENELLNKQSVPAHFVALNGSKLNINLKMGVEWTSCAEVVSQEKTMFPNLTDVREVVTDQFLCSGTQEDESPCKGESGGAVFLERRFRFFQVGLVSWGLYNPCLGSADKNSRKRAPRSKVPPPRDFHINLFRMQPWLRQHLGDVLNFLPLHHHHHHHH

The target of assay [2] is T2, human C2 D419A (human, UniProt P06681 21-752).
T2 sequence: T1 sequence with A397D, D399A

In assay [3] the target is T3, human C2 G427A (human, UniProt P06681 21-752).
T3 sequence: T1 sequence with A397D, G407A

In assay [4] the target is T4, human C2 E324A (human, UniProt P06681 21-752).
T4 sequence: T1 sequence with E304A, A397D

B1: RF16-242 (antibody, human IgG4 S228P, lambda, V domains shown)
VH: EVQLLQSGAEVKKPGESLKISCKGSGYSFTSYWIGWVRQMPGKGLEWMGIIYPGDSDTRYSPSFQGQVTISADKSISTAYLQWSSLKASDTAMYYCARRGHYGDYFDYWGQGTLVTVSS
VL: SYELTQPPSVSVSPGQTARITCSGDALPKKYAYWYHQKSGQAPVLVIYEDRRRPSEIPERFSGSSSGTMATLTITGAQVEDEGVYFCYSRDRAGNQRVFGGGTQLTVLG
notes: pH-dependent anti-C2 antibody from a phage display library
What is called Kd is the equilibrium constant for the complex coming apart. High values mean a looser complex, low ones a tighter complex. Take B1: the dissociation constant Kd in assay [1] worked out at 23 nM; in assay [2], 10.5 nM; in assay [3], 4 nM; in assay [4] it was 10.7 nM.
